41 sequences from the nanobody polyreactivity screen of Harvey et al. (2022) can be followed below.

This data set is described as follows: yeast display, Sf9 membrane polyspecificity reagent, FACS + sequencing; frameworks hold sequencing errors. In short, it runs like this: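 Synthetic nanobody libraries on Saccharomyces cerevisiae BJ5465 were galactose-induced for 36–48 hours, stained 1 hour at 4 °C with 10% biotinylated, detergent-solubilized Sf9 membrane reagent and enriched on streptavidin microbeads. FACS then separated cells into low and high (top ~1%) gates by anti-HA (expression) and streptavidin (reagent binding) fluorescence. Genes were colony-PCR amplified, MiSeq 2 × 250 sequenced and CDR-length filtered. A clone's polyreactivity label is that of its gate of origin.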
Regarding “QVQLVESGGGLVQAGGSLRLSCAASGFIFNINTMGWYRQAPGKERELVAAITLNGDGTYYADSVKGRFTISRDNAKNTVDIQMNSLNPADTAVDYCNAATWYYYYVSRETYYFDVDYWGQGTQVTVSS”, the “polyreactivity (PSR sort gate)” value was “low polyreactivity”. Take “QVQLVESGGGLVQAGGSLRLSCAASGFIFNLYAMGWYRQAPGKERELVATITNRGGITHYADSVKGRFTISRDNAKNTVYLQMNSLKPEDSAVYYCAVKVYRRSGGYEYWGQGTQVTVSS”: the “polyreactivity (PSR sort gate)” value is “low polyreactivity”. With “QVQLVESGGGLVQAGGSLRLSCAASGFIFNNYAMGWSRQAPGKERELVAAITWSGGGTYYADSVKGRFTISRDNAKNTVYLQMNSLKPEDSAVYYCAVYYPAYLEEYWGQGTQVTVSS” the entry was “high polyreactivity”. Then “QVQLVESGGGLVQAGGSLRLSCAASGFIFNNYGMGWSRQAPGKERELVATISRGASTNYADSVKGRFTISRDNAKNTVYLQMNSLKPEDTAVYYCAKDYGDWGQGTQVTVSS”, with “low polyreactivity”; and “QVQLVESGGGLVQAGGSLRLSCAASGFIFNRNAMGWYRQAPGKERELVAAITWSASRTYYADSVKGRFTISRDNAKNTVYLQMNSLKPEDTAVSYCAARRYRGYDYWGQGTQVTVSS”, with “high polyreactivity”; and “QVQLVESGGGLVQAGGSLRLSCAASGFIFNSYAMGWYRPAPGKERELVAVISWSGGTTYYADSVKGRFTISRDNAKNTVFLQMNSLKPEDTAVYYCAASSYRSQYGYWGQGTQVTVSS”, with “high polyreactivity”. With “QVQLVESGGGLVQAGGSLRLSCAASGFIFNSYGMGWYRQAPGKERELVAAITKSGGSTYYADSVKGRFTISRDNAKNTVYLQMNSLKPEDTAVYYCAARAYRYSVYRGDYWGQGTQVTVSS” the entry was “high polyreactivity”; with “QVQLVESGGGLVQAGGSLRLSCAASGFIFNWNTMGWYRQAPGKERELVATMTGSGGSTYADSVKGRFTISRDNAKNTVYLQMNSLKPEDTAVYYCAATRRSFHKYDYWGQGTQVTVSS”, “low polyreactivity”; with “QVQLVESGGGLVQAGGSLRLSCAASGFIFNYNAMGWYRQAPGKERELVAAISGTGVRTYYADSVKGRFTISRDNAKNTVYLQMNSLKPEDTAVYYCNAYYGYIPVSGYRNDYWGQGTQVTVSS”, “low polyreactivity”. As for “QVQLVESGGGLVQAGGSLRLSCAASGFIFNYYAMGWYIQAPGKERELVAAISTNGGSTYYADSVKGRFTISRDNAKNTVYLQMNSLKPEDTAVYYCAARSYGVSGRYYRYTFGMDYWGQGTQVTVSS”, the “polyreactivity (PSR sort gate)” value is listed as “high polyreactivity”.

Consider “QVQLVESGGGLVQAGGSLRLSCAASGFIFNYYAMGWYRQAPGKERELVAISRGGSTNYADSVKGRFTISRDNAKNTVYLQMNSLKPEDTAVYYCAATKRYASGMYYWGQGTQVTVSS”, for which the “polyreactivity (PSR sort gate)” value is listed as “high polyreactivity”.

Turning to “QVQLVESGGGLVQAGGSLRLSCAASGFIFPDNVMGWYRQAPGKERELVAAISRSGGSTYYADSVKGRFTISRDNAKNTVYLQMNSLKPEDTAVYYCAVKFVRYRQGIVLYDYWGQGTQVTVSS”, the “polyreactivity (PSR sort gate)” value is given as “high polyreactivity”. “QVQLVESGGGLVQAGGSLRLSCAASGFIFPEYAMGWYRQAPGKERELVAAINWSGGNTYYADSVKGRFTISRDNAKNTVYLQMNSLKPEDTAVYYCNVDDWVTDDDYWGQGTQVTVSS”: the “polyreactivity (PSR sort gate)” value is given as “low polyreactivity”.

For “QVQLVESGGGLVQAGGSLRLSCAASGFIFPFYAMGWYRQAPGKERELGASITWSGSTYADSVKGRFTISRDNAKNTVYLQMNSLKPEDTAVYYCNTDPRSVVGWYAYWGQGTQVTVSS”, the “polyreactivity (PSR sort gate)” value was “low polyreactivity”. With “QVQLVESGGGLVQAGGSLRLSCAASGFIFPFYAMGWYRQAPGKERELVAGIRGVGSTNYADSVKGRFTISRDNAKNTVYLQMNSLKPEDTAVYYCNKELYDFKDRNLTAFLLRIFDSWGQGTQVTVSS” the entry was “low polyreactivity”. Then “QVQLVESGGGLVQAGGSLRLSCAASGFIFPGNARGWYRQAPGKERELVAAISNSGSRTYYADSVKGRFTISRDNAKNTVYLQMNSLKPEDTAVYYCAALNYHKFAHKYDYWGQGTQVTVSS”, with “low polyreactivity”. Consider “QVQLVESGGGLVQAGGSLRLSCAASGFIFPGNTMGWYRQAPGKERELVAAITRSGASTYYADSVKGRFTISRDNAKNTVYLQMNSLKPEDTAVYYCAERYYYGLRYPDYYYWGQGTQVTVSS”, for which the “polyreactivity (PSR sort gate)” value was “high polyreactivity”. With “QVQLVESGGGLVQAGGSLRLSCAASGFIFPGNVMGWYIQAPWKERELVAAISSGGGSTYYADSVKGRFTISRDNAKNSVYLQMNSLKPEDTAVYYCAKRTPRKWGQGTQVTVSS” the entry was “high polyreactivity”; with “QVQLVESGGGLVQAGGSLRLSCAASGFIFPGYAMGWYRQAPGKERELVAVISGSGARTYYADSVKGRFTISRDNAKNTVYLQMNSLKPEDTAVYYCATDYCRTRQYRPGDYWGQGTQVTVSS”, “high polyreactivity”; with “QVQLVESGGGLVQAGGSLRLSCAASGFIFPKNAMGWYRQAPGKERELVAAISRSSGNTYYADSVKGRFTISRDNAKNTVYLQMNSLKPEDTAVYYCAASYWPYRGPVGGSKMYYWGQGTQVTVSS”, “high polyreactivity”. For the sequence “QVQLVESGGGLVQAGGSLRLSCAASGFIFPNNAMGWYRQAPGKERELVARISYGGGDTHYADSVKGRFTISRDNAKNTVYLERNSLKPEDTAVYYCAVKDGQDDYWGQGTQVTVSS”, the “polyreactivity (PSR sort gate)” value is listed as “low polyreactivity”. Take “QVQLVESGGGLVQAGGSLRLSCAASGFIFPPYDMGWYRQAPGKERELVADITYSDGITYYADSVKGRFTISRDNAMNTVYLQMNSLKPEDTAVYYCNADYSRIGPEVDYWGQGTQVTVSS”: the “polyreactivity (PSR sort gate)” value was “low polyreactivity”.

Turning to “QVQLVESGGGLVQAGGSLRLSCAASGFIFPRYAKGWYRQAPGKERELVAAISKSGGRTYYADSEKGGFTISRDYAKNTFYLQMNSLKPEDTAVYYCADGRISRFSRYYYWGQGTHVTVSS”, the “polyreactivity (PSR sort gate)” value was “high polyreactivity”.

For “QVQLVESGGGLVQAGGSLRLSCAASGFIFPRYAMGWSRQRPGKESELVAAISRSGGITRYADSVKGRFTISRDNAKNTVYLQRNSLKPEDTAVYYCAAYIQGWVTAEWVRDDYWGKGTQVTVSS”, the “polyreactivity (PSR sort gate)” value is “high polyreactivity”.

Turning to “QVQLVESGGGLVQAGGSLRLSCAASGFIFPRYVMGWSRQAPGKERELVAAINSDISTNYADSVKGRFTISRDNAKNTVYLQMNSLKPEDTAVYDCAAERWDDRWEFDYWGQGTQVTVSS”, the “polyreactivity (PSR sort gate)” value is “low polyreactivity”. With “QVQLVESGGGLVQAGGSLRLSCAASGFIFPSYAMGWYRQAPGKERELVATISKRVATTYYADSVKGRFTISRDNAKNTVYLQMNSLKPEDTAVYYCAAAYRGYARHDYWGQGTQVTVSS” the entry was “high polyreactivity”; with “QVQLVESGGGLVQAGGSLRLSCAASGFIFPTNVMGWYRQAPGKEREFVASITWRGGGTYYADSVKGRFTISRDNAKNTVYVQMNSLKPEDTAVYYCAAGRSWSSYWKYDYWGQGTQVTVSS”, “low polyreactivity”. As to “QVQLVESGGGLVQAGGSLRLSCAASGFIFPWYAMGWYRQAPGKERELVAAISSSGGRTYYADSVKGRFTISRDNAKNTVYLQMNSLKPEDTAVYYCNVANGLSQVYRYNYWGQGTQVTVSS”, the “polyreactivity (PSR sort gate)” value is “high polyreactivity”.

Turning to “QVQLVESGGGLVQAGGSLRLSCAASGFIFPYDAMGWYRQAPGKERELVAAITYRDGSTYYADSVKGRFTISRDNAKNTVYLQMNSLKPEDTAVYYCAADRYVYWDLYGYWGQGTQVTVSS”, the “polyreactivity (PSR sort gate)” value was “low polyreactivity”. With “QVQLVESGGGLVQAGGSLRLSCAASGFIFPYYAMGLYRQAPGKEREMVAAITFSATRTYYADSVKGRFTISRDNAKNTVYLQMNSLKPEDTADYYCKARGGVYGSYFEFNYWGQGSQVTVSS” the entry was “low polyreactivity”; with “QVQLVESGGGLVQAGGSLRLSCAASGFIFPYYAMGWYRQAPGKERELVAAISQSGGSTYYADSVKGRFTISRDNAKNTVYLQMNSLKPEDTAVYYCAKYIPSYHDGDYWGQGTQVTVSS”, “low polyreactivity”. For “QVQLVESGGGLVQAGGSLRLSCAASGFIFPYYAMGWYRQAPGKERELVAAITSSGGRTYYADSVKGRFTISRDNAKNTVYFQMNSLKPEDTAVYYCAAYYLTPTDVEYDYWGQGTQVTVSS”, the “polyreactivity (PSR sort gate)” value is “high polyreactivity”. Then “QVQLVESGGGLVQAGGSLRLSCAASGFIFQAYAMGWYRQAPGKERELVAAISSSGGSTYYADSVKGRFTISRDNAKNTVYLQMNSLKPEDTAVYYCAARSRRVSLIRDSYGYWGQGTQVTVSS”, with “high polyreactivity”; and “QVQLVESGGGLVQAGGSLRLSCAASGFIFQPYAMGWYRQAPGKERELVAAITSRGGRTYYADSVQGRFTICRDNAKNTVYLQMNSLKPEDTSVYYCNADIYASEYYYWGQGTQVTVSS”, with “low polyreactivity”; and “QVQLVESGGGLVQAGGSLRLSCAASGFIFQPYSLGWYRQAPGKERELVAAITSRGGRTYYADSVKGRFTISRDNAKNTVYLQMNSLKPEDTAVYYCNADIYASEYYYWGQGTQVTVSS”, with “low polyreactivity”. With “QVQLVESGGGLVQAGGSLRLSCAASGFIFQQNAMGWYIQAPGKERELVAAISRSGGRTYYADSVKGRFTISRDNAKNTVYLQMNSLKPEDSAVYYCATRFYTKAFEYDYWGQGTQVTVSS” the entry was “high polyreactivity”. Take “QVQLVESGGGLVQAGGSLRLSCAASGFIFQRYAMGWYRQAPGKERELVAAITRTGGRTYYSDSVKGRFTISRDNAKNTVYLQMNSLKPEDTAVYYCAADRTMSYEYWGQGTKVTVSS”: the “polyreactivity (PSR sort gate)” value is recorded as “high polyreactivity”. With “QVQLVESGGGLVQAGGSLRLSCAASGFIFRAYTMGWYRQAPGKERELVAAITSGSSTNYADSVKGRFTISRDNAKNTVYLQMNSLKPEDTAVYYCNTDWVWLIIEYDYWGQGTQVTVSS” the entry was “low polyreactivity”; with “QVQLVESGGGLVQAGGSLRLSCAASGFIFRDNAMGWYRQAPGKERELVAAISERGGRTYYADSVKGRFTISRDNAKNTVYLQMNSLKPEDTAVYYCAAKTIYDTRGIRHYYWGQGTQVTVSS”, “high polyreactivity”; with “QVQLVESGGGLVQAGGSLRLSCAASGFIFRGNTMGWYRQAPGKERELVAAISASGGSTYYADSVKGRFTISRDNAKNTVYLQMNSLKPEDTAVYYCNVAVIYRSRTYWYGMDYWGQGTQLTVSS”, “high polyreactivity”. Then “QVQLVESGGGLVQAGGSLRLSCAASGFIFRGYAMGWYRQAPGKERELVAAISRSGGSTYYADSVKGRFTISRDNAKNTVYLQMNSLKPEDTAVYFCAVALFETGHYYWGQGTQVTVSS”, with “high polyreactivity”.
